Data on 5 molecules can be found in patent publication US20210115113A1 (CITY OF HOPE, published 2021).

T1: EBV gp350 on EBV-eGFP virions (Epstein-Barr virus, UniProt P03200 1-907)
T1 sequence: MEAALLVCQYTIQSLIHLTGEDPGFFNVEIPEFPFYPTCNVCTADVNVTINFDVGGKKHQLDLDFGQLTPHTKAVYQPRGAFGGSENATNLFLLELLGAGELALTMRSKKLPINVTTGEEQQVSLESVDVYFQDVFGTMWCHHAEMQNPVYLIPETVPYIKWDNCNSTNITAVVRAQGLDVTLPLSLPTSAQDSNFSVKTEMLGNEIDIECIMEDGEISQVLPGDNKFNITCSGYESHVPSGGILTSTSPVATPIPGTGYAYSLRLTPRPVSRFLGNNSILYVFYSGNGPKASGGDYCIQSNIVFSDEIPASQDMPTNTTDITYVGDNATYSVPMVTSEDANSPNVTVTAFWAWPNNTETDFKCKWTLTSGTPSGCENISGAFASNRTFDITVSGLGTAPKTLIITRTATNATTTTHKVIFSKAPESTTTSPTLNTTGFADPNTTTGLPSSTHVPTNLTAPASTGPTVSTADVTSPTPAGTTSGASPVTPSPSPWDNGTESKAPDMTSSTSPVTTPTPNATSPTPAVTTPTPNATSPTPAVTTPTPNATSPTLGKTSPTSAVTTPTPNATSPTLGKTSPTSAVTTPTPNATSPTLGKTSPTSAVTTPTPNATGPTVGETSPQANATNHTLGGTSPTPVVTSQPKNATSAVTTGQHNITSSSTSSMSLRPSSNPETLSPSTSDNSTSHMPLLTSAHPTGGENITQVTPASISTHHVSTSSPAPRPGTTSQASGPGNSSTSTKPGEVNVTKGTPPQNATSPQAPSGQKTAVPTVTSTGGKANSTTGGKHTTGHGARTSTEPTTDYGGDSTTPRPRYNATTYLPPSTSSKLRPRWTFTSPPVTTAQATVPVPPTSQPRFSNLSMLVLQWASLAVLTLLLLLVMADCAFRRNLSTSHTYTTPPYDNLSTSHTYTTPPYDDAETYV

T2: EBV gp350 expressed on the surface of stably transfected CHO cells (Epstein-Barr virus, UniProt P03200 1-907)
T2 construct: also called native gp350; gp350 expressing CHO cells
T2 sequence: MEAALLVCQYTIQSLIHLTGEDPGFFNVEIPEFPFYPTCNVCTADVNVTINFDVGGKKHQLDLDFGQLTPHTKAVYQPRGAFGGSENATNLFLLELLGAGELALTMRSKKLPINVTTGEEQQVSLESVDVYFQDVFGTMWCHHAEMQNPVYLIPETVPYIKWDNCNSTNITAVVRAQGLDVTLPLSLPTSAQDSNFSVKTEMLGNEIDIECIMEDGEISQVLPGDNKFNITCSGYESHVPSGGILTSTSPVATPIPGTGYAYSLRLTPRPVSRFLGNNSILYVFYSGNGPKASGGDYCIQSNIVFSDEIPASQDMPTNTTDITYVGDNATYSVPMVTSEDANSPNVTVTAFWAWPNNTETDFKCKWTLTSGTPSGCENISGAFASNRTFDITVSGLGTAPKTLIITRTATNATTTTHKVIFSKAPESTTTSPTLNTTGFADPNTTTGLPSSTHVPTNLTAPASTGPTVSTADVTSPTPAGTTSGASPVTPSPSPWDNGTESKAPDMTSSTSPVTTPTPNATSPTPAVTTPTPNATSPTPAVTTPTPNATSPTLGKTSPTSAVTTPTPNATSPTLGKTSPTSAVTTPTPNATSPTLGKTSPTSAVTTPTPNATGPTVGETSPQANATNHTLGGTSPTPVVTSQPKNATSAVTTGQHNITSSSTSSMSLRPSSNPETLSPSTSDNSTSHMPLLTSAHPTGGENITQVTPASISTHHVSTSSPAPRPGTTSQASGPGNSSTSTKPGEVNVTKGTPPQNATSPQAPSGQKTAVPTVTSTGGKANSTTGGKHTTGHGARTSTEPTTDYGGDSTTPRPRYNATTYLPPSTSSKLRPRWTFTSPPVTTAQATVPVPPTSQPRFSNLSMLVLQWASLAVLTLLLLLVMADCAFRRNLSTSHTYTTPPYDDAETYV

B1: HB11 (antibody, V domains shown)
VH: PSLVKPSQTLSLTCSVTGDSITSGFWNWIRKFPGNKLEYMGYISYSGSTYYNPSLKSRISITRDTSKNQYYLQLNSVTTEDTATYYCARGNGGNYDWYFDVWGAGTTVTVSS
VL: AIMSASLGEKVTMSCRASSSVNFMNWYQQKSDDSPKLLIYYISNLAPGVPARFSGSGSGNSYSLTISGMEGEDAATYYCQQFTSSPSWTFGGGTKLEIKR
B2: HB1 (antibody, V domains shown)
VH: PGLVAPSQSLSITCTVSGFLLTTYGVHWVRQPPGKGLEWLGVIWAGGSTNYNSALMSRLSINKDISKSQVFLKMNSLQTDDTAMYYCTRDRGYGYLYAMDYWGQGTSVTVSS
VL: KFMSTSVGDRVSVTCKASQNVGTNVAWYQQKPGQSPKALIYSTSSRYTGVPDRFAGSGSGTDYTLTISNVQSEDLAEYFCQQYNTYPYTFGGGTRLDIKR
B3: murine 72A1 (m72A1), anti-EBV gp350 neutralizing antibody from hybridoma HB168 (antibody, V domains shown)
VH: EVQLQQSGPELVKPGTSMKISCKASGSSFTDYTMNWMKQSHGKNLEWIGLINPYNGGTRYNQKFKGKATLTLDKSSSTAYMEVLSLTSEDSAVYYCAGGLRRVNWFAYWGQGTLVSVSA
VL: QAVLTQESALTTSPGETVTLTCRSSTGAVTTSNYANWVQEKPDHLFTGLIGGTNNRVPGVPARFSGSLIGDKAALTITGAQTEDEAIYFCVLWHSNHWVFGGGTKLTVL
notes: also called nAb-72A1; mouse 72A1
B4: HB5 (antibody, V domains shown)
VH: AELVRPGASVKISCKAFGYTFTNHNINWVKQRPGQGLDWIGYINPYNDYTSYNQKFKGKATLTVDKSSNTAYMELSSLTSEDSAVYYCARSEGWLRRGAWFAYWGQGTLVTVSA
VL: AILSVSPGERVSFSCRASQSIGTSIHWYQQRTNDSPRLLIKYASESISGIPPRFSGSGSGTDFTLSINSVESEDIADYHCQQSNSWPMLTFGAGTKLELKR
notes: also called mHB5
B5: HB17 (antibody, V domains shown)
VH: AELVIPGASVKVSCKASGYTFTSYWIHWVKQWPGQGLEWIGEINPNNGHTNYNEKFKSKATLTVDKSSSTAYMQLSSLTSEDSAVYYCARNLFYYSRPDYWGQGTSVTVSS
VL: SSLSASLGDRVTISCRASQDIGNYLNWYQQKPDGTIKLLIYYTSRLHSGVPSRFSGSGSGTDYSLTISNLEEEDIATYFCQQGNTLPPTFGGGTKLEIKR

The target of the first assay is T1, EBV gp350 on EBV-eGFP virions. Description: cell-based or functional assay.
On to B1, for which the “% neutralization of EBV-eGFP infection of Raji cells at 100 µg/ml” value came out at 90%.
As for B2, the “% neutralization of EBV-eGFP infection of Raji cells at 100 µg/ml” value was 90%.

The target of another assay is T2, EBV gp350 expressed on the surface of …. Description: cell competition (flow), unlabeled 125 µg/ml; competitor: biotinylated m72A1 1 µg/ml.
Turning to B3, the “% inhibition of biotinylated nAbs” value amounted to 94%.
On the same count and under the same terms, the value for B1 was 89%.
Same read-out and setting: the value for B2 was 81%; that for B4 was 92%; that for B5 was 6%.

A further assay shares this target. Description: cell competition (flow), unlabeled 250 µg/ml; competitor: biotinylated m72A1 1 µg/ml.
B3: the “% inhibition of biotinylated nAbs” value was 93%.
Still for that read-out and setting: the value for B1 was 95%.
The same measure, in the same setting: the value for B2 was 89%; that for B4 was 93%; that for B5 was 32%.

Another assay has the same target. Description: cell competition (flow), unlabeled 500 µg/ml; competitor: biotinylated m72A1 1 µg/ml.
As to B3, the “% inhibition of biotinylated nAbs” value was found to be 91%.
As to B1, the “% inhibition of biotinylated nAbs” value was 95%.
As to B2, the “% inhibition of biotinylated nAbs” value was determined as 91%.
Consider B4, for which the “% inhibition of biotinylated nAbs” value is 95%.
On to B5, for which the “% inhibition of biotinylated nAbs” value was determined as 32%.

A further assay has the same target. Description: cell competition (flow), unlabeled 67.5 µg/ml; competitor: biotinylated m72A1 1 µg/ml.
As for B3, the “% inhibition of biotinylated nAbs” value was 97%.
For B1, the “% inhibition of biotinylated nAbs” value worked out at 87%.
Still for that read-out and setting: the value for B2 was 81%; that for B4 was 94%; that for B5 was 0%.

The target is the same in a further assay. Description: cross-competition on gp350-CHO cells (flow), unlabeled 500 µg/ml; competitor: biotinylated HB1.
For the molecule B3, the “% inhibition of biotinylated nAbs” value came to 82%.
Still for that read-out and setting: the value for B1 was 93%; that for B2 was 92%; that for B4 was 92%.
On the same count and under the same terms, the value for B5 was 23%.

The next assay has the same target. Description: cross-competition on gp350-CHO cells (flow), unlabeled 500 µg/ml; competitor: biotinylated HB5.
For the molecule B3, the “% inhibition of biotinylated nAbs” value amounted to 97%.
With B1, the “% inhibition of biotinylated nAbs” value was determined as 96%.
On the same count and under the same terms, the value for B2 was 97%; that for B4 was 98%.
Still for that read-out and setting: the value for B5 was 32%.

Another assay has the same target. Description: cross-competition on gp350-CHO cells (flow), unlabeled 500 µg/ml; competitor: biotinylated 54A1.
Consider B3, for which the “% inhibition of biotinylated nAbs” value came to 1%.
As to B1, the “% inhibition of biotinylated nAbs” value turned out to be 9%.
As for B2, the “% inhibition of biotinylated nAbs” value was found to be 4%.
In the case of B4, the “% inhibition of biotinylated nAbs” value turned out to be 13%.
With B5, the “% inhibition of biotinylated nAbs” value was found to be 0%.

The target is the same in the next assay. Description: cross-competition on gp350-CHO cells (flow), unlabeled 500 µg/ml; competitor: biotinylated HB11.
As to B3, the “% inhibition of biotinylated nAbs” value turned out to be 90%.
Take B1: the “% inhibition of biotinylated nAbs” value was determined as 96%.
Take B2: the “% inhibition of biotinylated nAbs” value turned out to be 96%.
As to B4, the “% inhibition of biotinylated nAbs” value was found to be 93%.
B5: the “% inhibition of biotinylated nAbs” value stood at 11%.

The target is the same in a further assay. Description: cross-competition on gp350-CHO cells (flow), unlabeled 500 µg/ml; competitor: biotinylated HB17.
With B3, the “% inhibition of biotinylated nAbs” value is 37%.
For B1, the “% inhibition of biotinylated nAbs” value was 17%.
Regarding B2, the “% inhibition of biotinylated nAbs” value was determined as 16%.
Still for that read-out and setting: the value for B4 was 9%; that for B5 was 86%.

For the next assay the target is unchanged. Description: cross-competition on gp350-CHO cells (flow), unlabeled 500 µg/ml; competitor: biotinylated HB20.
Regarding B3, the “% inhibition of biotinylated nAbs” value worked out at 31%.
As for B1, the “% inhibition of biotinylated nAbs” value was determined as 3%.
In the case of B2, the “% inhibition of biotinylated nAbs” value came out at 61%.
The same measure, in the same setting: the value for B4 was 73%; that for B5 was 17%.

The next assay shares this target. Description: cross-competition on gp350-CHO cells (flow), unlabeled 500 µg/ml; competitor: biotinylated h72A1.
With B3, the “% inhibition of biotinylated nAbs” value was 98%.
Consider B1, for which the “% inhibition of biotinylated nAbs” value was determined as 97%.
Still for that read-out and setting: the value for B2 was 95%; that for B4 was 97%; that for B5 was 16%.

The next assay shares this target. Description: cross-competition on gp350-CHO cells (flow), unlabeled 500 µg/ml; competitor: biotinylated m72A1.
Turning to B3, the “% inhibition of biotinylated nAbs” value worked out at 98%.
The same measure, in the same setting: the value for B1 was 97%.
For B2, the “% inhibition of biotinylated nAbs” value worked out at 98%.
The same measure, in the same setting: the value for B4 was 97%; that for B5 was 24%.
